Results from article PMC8864064, “Molecular Chaperone BRICHOS Inhibits CADASIL-Mutated NOTCH3 Aggregation In Vitro” (Frontiers in Molecular Biosciences, 2022).

B1: NOTCH3 EGF1–5 R133C (CADASIL-mutated truncated human Notch3 extracellular domain, amino acids 1–234) (domain or fragment)
chain: not shown
notes: signal peptide in the construct; human NOTCH3 extracellular domain, first five EGF-like repeats, amino acids 1–234, with the CADASIL mutation R133C (in EGF3); codon-optimized construct derived from Duering et al., 2011; R133C is a common CADASIL mutation found in patients; also called N3 EGF1–5 R133C; R133C mutant

Assays:
[1] = molecular target: the molecule itself; assay: native gel or EMSA; N3 EGF1–5 proteins at 30 µM in 1 × PBS, 37°C for 80 h with and without Bri2 BRICHOS at 1:1 and 1:2 molar; native loading buffer free of DTT and SDS; 6% native PAGE
[2] = molecular target: B1; assay: cell-based or functional assay

Row | final aggregation intensity of R133C by turbidity at 360 nm, 37°C, 10 µM, BRICHOS at 1:1 molar ratio [2] [% reduction] | Binder | binding result [1]
1 |  | NOTCH3 EGF1–5 wildtype (truncated human Notch3 extracellular domain, first five EGF-like repeats, amino acids 1–234) (domain or fragment, signal peptide in the construct; human NOTCH3 extracellular domain, first five EGF-like repeats, amino acids 1–234; codon-optimized construct derived from Duering et al., 2011; also called N3 EGF1–5 WT; WT N3 EGF1–5) not shown | binds
2 | ≤ 50 | Recombinant human Bri2 BRICHOS domain (domain or fragment, UniProt Q9Y287 137-231, looked up) FADSDPANIVHDFNKKLTAYLDLNLDKCYVIPLNTSIVMPPRNLLELLINIKAGTYLPQSYLIHEHMVITDRIENIDHLGFFIYRLCHDKETYKL | 
3 |  | B1 | binds
